Test results: ChEMBL document CHEMBL2029331, “Red fluorescent scaffold for highly sensitive protease activity probes” (Bioorg Med Chem Lett, 2012)

Tests used:
[1] = substrate: Cc1ccccc1C1=C2C=CC(=N)C=C2[Si](C)(C)c2cc(NC(=O)[C@H](CC(=O)O)NC(=O)[C@@H](NC(=O)[C@H](CCC(=O)O)NC(=O)[C@H](CC(=O)O)NC(=O)OCc3ccccc3)C(C)C)ccc21; test: Activity of caspase3 after 10 hrs by FRET assay
[2] = substrate: Cc1ccccc1C1=C2C=CC(=N)C=C2[Si](C)(C)c2cc(NC(=O)[C@H](CC(=O)O)NC(=O)[C@@H](NC(=O)[C@H](CCC(=O)O)NC(=O)[C@H](CC(=O)O)NC(=O)OCc3ccccc3)C(C)C)ccc21; test: Ratio of Kcat to Km for caspase3 by FRET assay

B1: Caspase-3 (Homo sapiens), P42574 (protein)
chain: MENTENSVDSKSIKNLEPKIIHGSESMDSGISLDNSYKMDYPEMGLCIIINNKNFHKSTGMTSRSGTDVDAANLRETFRNLKYEVRNKNDLTREEIVELMRDVSKEDHSKRSSFVCVLLSHGEEGIIFGTNGPVDLKKITNFFRGDRCRSLTGKPKLFIIQACRGTELDCGIETDSGVDDDMACHKIPVEADFLYAYSTAPGYYSWRNSKDGSWFIQSLCAMLKQYADKLEFMHILTRVNRKVATEFESFSFDATFHAKKQIPCIVSMLTKELYFYH
[1]
  Km: 1.2 µM
  Vmax: 6.8 ×10⁻⁸ M/s
[2]
  kcat/Km: 3.1 ×10⁶ /M/s
